Measurements taken from US20250026846A1 (JCR PHARMACEUTICALS, published 2025).

T1: recombinant monkey TfR (r monkey TfR: Sino Biological Inc.), crab-eating monkey TfR extracellular region with … (crab-eating monkey (Macaca fascicularis))
T1 construct: Bought from Sino Biological; also called r monkey TfR-ECD (Histag); not shown: histidine tag at the N-terminus
T1 chain: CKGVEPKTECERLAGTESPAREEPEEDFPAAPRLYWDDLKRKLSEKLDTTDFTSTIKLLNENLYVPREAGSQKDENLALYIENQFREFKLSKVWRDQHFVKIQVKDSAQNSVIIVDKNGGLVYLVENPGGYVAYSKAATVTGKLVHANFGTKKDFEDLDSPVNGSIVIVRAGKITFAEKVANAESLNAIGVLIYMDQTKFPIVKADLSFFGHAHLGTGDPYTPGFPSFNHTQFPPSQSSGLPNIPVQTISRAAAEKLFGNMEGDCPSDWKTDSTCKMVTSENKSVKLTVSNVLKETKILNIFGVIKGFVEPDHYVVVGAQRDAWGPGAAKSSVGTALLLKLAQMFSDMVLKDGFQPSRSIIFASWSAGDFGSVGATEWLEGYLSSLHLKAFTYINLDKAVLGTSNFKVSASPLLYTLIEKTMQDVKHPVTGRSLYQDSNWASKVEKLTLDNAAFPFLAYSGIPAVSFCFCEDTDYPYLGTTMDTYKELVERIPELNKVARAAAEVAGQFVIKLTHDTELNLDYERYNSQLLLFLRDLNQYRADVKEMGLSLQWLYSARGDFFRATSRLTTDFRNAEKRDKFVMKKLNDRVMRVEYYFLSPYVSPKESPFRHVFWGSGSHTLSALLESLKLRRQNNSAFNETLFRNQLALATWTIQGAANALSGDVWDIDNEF

B1: Fab GS3-NAGLU (other)
light: DIVMTQTPLSLSVTPGQPASISCRSSQSLVHSNGNTYLHWYLQKPGQSPQLLIYKVSNRFSGVPDRFSGSGSGTDFTLKISRVEAEDVGVYYCSQSTHVPWTFGQGTKVEIKRTVAAPSVFIFPPSDEQLKSGTASVVCLLNNFYPREAKVQWKVDNALQSGNSQESVTEQDSKDSTYSLSSTLTLSKADYEKHKVYACEVTHQGLSSPVTKSFNRGEC
heavy: EVQLVQSGAEVKKPGESLKISCKGSGYSFMNYWLGWVRQMPGKGLEWMGDIYPGGDYPTYSEKFKVQVTISADKSISTAYLQLSSLKASDTAMYYCARSGNYDEVAYWGQGTLVTVSSASTKGPSVFPLAPSSKSTSGGTAALGCLVKDYFPEPVTVSWNSGALTSGVHTFPAVLQSSGLYSLSSVVTVPSSSLGTQTYICNVNHKPSNTKVDKKVEPKSCDKTHTGGGGSGGGGSGGGGSDEAREAAAVRALVARLLGPGPAADFSVSVERALAAKPGLDTYSLGGGGAARVRVRGSTGVAAAAGLHRYLRDFCGCHVAWSGSQLRLPRPLPAVPGELTEATPNRYRYYQNVCTQSYSFVWWDWARWEREIDWMALNGINLALAWSGQEAIWQRVYLALGLTQAEINEFFTGPAFLAWGRMGNLHTWDGPLPPSWHIKQLYLQHRVLDQMRSFGMTPVLPAFAGHVPEAVTRVFPQVNVTKMGSWGHFNCSYSCSFLLAPEDPIFPIIGSLFLRELIKEFGTDHIYGADTFNEMQPPSSEPSYLAAATTAVYEAMTAVDTEAVWLLQGWLFQHQPQFWGPAQIRAVLGAVPRGRLLVLDLFAESQPVYTRTASFQGQPFIWCMLHNFGGNHGLFGALEAVNGGPEAARLFPNSTMVGTGMAPEGISQNEVVYSLMAELGWRKDPVPDLAAWVTSFAARRYGVSHPDAGAAWRLLLRSVYNCSGEACRGHNRSPLVRRPSLQMNTSIWYNRSDVFEAWRLLLTSAPSLATSPAFRYDLLDLTRQAVQELVSLYYEEARSAYLSKELASLLRAGGVLAYELLPALDEVLASDSRFLLGSWLEQARAAAVSEAEADFYEQNSRYQLTLWGPEGNILDYANKQLAGLVANYYTPRWRLFLEALVDSVAQGIPFQQHQFDKNVFQLEQAFVLSKQRYPSQPRGDTVDLAKKIFLKYYPRWVAGSW
notes: also called Fab HC-GS3-NAGLU
B2: Fab GS3-GUSB (other)
light: B1 light
heavy: EVQLVQSGAEVKKPGESLKISCKGSGYSFMNYWLGWVRQMPGKGLEWMGDIYPGGDYPTYSEKFKVQVTISADKSISTAYLQLSSLKASDTAMYYCARSGNYDEVAYWGQGTLVTVSSASTKGPSVFPLAPSSKSTSGGTAALGCLVKDYFPEPVTVSWNSGALTSGVHTFPAVLQSSGLYSLSSVVTVPSSSLGTQTYICNVNHKPSNTKVDKKVEPKSCDKTHTGGGGSGGGGSGGGGSLQGGMLYPQESPSRECKELDGLWSFRADFSDNRRRGFEEQWYRRPLWESGPTVDMPVPSSFNDISQDWRLRHFVGWVWYEREVILPERWTQDLRTRVVLRIGSAHSYAIVWVNGVDTLEHEGGYLPFEADISNLVQVGPLPSRLRITIAINNTLTPTTLPPGTIQYLTDTSKYPKGYFVQNTYFDFFNYAGLQRSVLLYTTPTTYIDDITVTTSVEQDSGLVNYQISVKGSNLFKLEVRLLDAENKVVANGTGTQGQLKVPGVSLWWPYLMHERPAYLYSLEVQLTAQTSLGPVSDFYTLPVGIRTVAVTKSQFLINGKPFYFHGVNKHEDADIRGKGFDWPLLVKDFNLLRWLGANAFRTSHYPYAEEVMQMCDRYGIVVIDECPGVGLALPQFFNNVSLHHHMQVMEEVVRRDKNHPAVVMWSVANEPASHLESAGYYLKMVIAHTKSLDPSRPVTFVSNSNYAADKGAPYVDVICLNSYYSWYHDYGHLELIQLQLATQFENWYKKYQKPIIQSEYGAETIAGFHQDPPLMFTEEYQKSLLEQYHLGLDQKRRKYVVGELIWNFADFMTEQSPTRVLGNKKGIFTRQRQPKSAAFLLRERYWKIANETRYPHSVAKSQCLENSLFT
notes: also called Fab HC-GS3-GUSB
B3: Fab GS3-GALC (other)
light: B1 light
heavy: EVQLVQSGAEVKKPGESLKISCKGSGYSFMNYWLGWVRQMPGKGLEWMGDIYPGGDYPTYSEKFKVQVTISADKSISTAYLQLSSLKASDTAMYYCARSGNYDEVAYWGQGTLVTVSSASTKGPSVFPLAPSSKSTSGGTAALGCLVKDYFPEPVTVSWNSGALTSGVHTFPAVLQSSGLYSLSSVVTVPSSSLGTQTYICNVNHKPSNTKVDKKVEPKSCDKTHTGGGGSGGGGSGGGGSYVLDDSDGLGREFDGIGAVSGGGATSRLLVNYPEPYRSQILDYLFKPNFGASLHILKVEIGGDGQTTDGTEPSHMHYALDENYFRGYEWWLMKEAKKRNPNITLIGLPWSFPGWLGKGFDWPYVNLQLTAYYVVTWIVGAKRYHDLDIDYIGIWNERSYNANYIKILRKMLNYQGLQRVKIIASDNLWESISASMLLDAELFKVVDVIGAHYPGTHSAKDAKLTGKKLWSSEDFSTLNSDMGAGCWGRILNQNYINGYMTSTIAWNLVASYYEQLPYGRCGLMTAQEPWSGHYVVESPVWVSAHTTQFTQPGWYYLKTVGHLEKGGSYVALTDGLGNLTIIIETMSHKHSKCIRPFLPYFNVSQQFATFVLKGSFSEIPELQVWYTKLGKTSERFLFKQLDSLWLLDSDGSFTLSLHEDELFTLTTLTTGRKGSYPLPPKSQPFPSTYKDDFNVDYPFFSEAPNFADQTGVFEYFTNIEDPGEHHFTLRQVLNQRPITWAADASNTISIIGDYNWTNLTIKCDVYIETPDTGGVFIAGRVNKGGILIRSARGIFFWIFANGSYRVTGDLAGWIIYALGRVEVTAKKWYTLTLTIKGHFTSGMLNDKSLWTDIPVNFPKNGWAAIGTHSFEFAQFDNFLVEATR
notes: also called Fab HC-GS3-GALC
B4: Fab GS3-FUCA1 (other)
light: B1 light
heavy: EVQLVQSGAEVKKPGESLKISCKGSGYSFMNYWLGWVRQMPGKGLEWMGDIYPGGDYPTYSEKFKVQVTISADKSISTAYLQLSSLKASDTAMYYCARSGNYDEVAYWGQGTLVTVSSASTKGPSVFPLAPSSKSTSGGTAALGCLVKDYFPEPVTVSWNSGALTSGVHTFPAVLQSSGLYSLSSVVTVPSSSLGTQTYICNVNHKPSNTKVDKKVEPKSCDKTHTGGGGSGGGGSGGGGSQPPRRYTPDWPSLDSRPLPAWFDEAKFGVFIHWGVFSVPAWGSEWFWWHWQGEGRPQYQRFMRDNYPPGFSYADFGPQFTARFFHPEEWADLFQAAGAKYVVLTTKHHEGFTNWPSPVSWNWNSKDVGPHRDLVGELGTALRKRNIRYGLYHSLLEWFHPLYLLDKKNGFKTQHFVSAKTMPELYDLVNSYKPDLIWSDGEWECPDTYWNSTNFLSWLYNDSPVKDEVVVNDRWGQNCSCHHGGYYNCEDKFKPQSLPDHKWEMCTSIDKFSWGYRRDMALSDVTEESEIISELVQTVSLGGNYLLNIGPTKDGLIVPIFQERLLAVGKWLSINGEAIYASKPWRVQWEKNTTSVWYTSKGSAVYAIFLHWPENGVLNLESPITTSTTKITMLGIQGDLKWSTDPDKGLFISLPQLPPSAVPAEFAWTIKLTGVK
notes: also called Fab HC-GS3-FUCA1
B5: Fab GS3-AC (other)
light: B1 light
heavy: EVQLVQSGAEVKKPGESLKISCKGSGYSFMNYWLGWVRQMPGKGLEWMGDIYPGGDYPTYSEKFKVQVTISADKSISTAYLQLSSLKASDTAMYYCARSGNYDEVAYWGQGTLVTVSSASTKGPSVFPLAPSSKSTSGGTAALGCLVKDYFPEPVTVSWNSGALTSGVHTFPAVLQSSGLYSLSSVVTVPSSSLGTQTYICNVNHKPSNTKVDKKVEPKSCDKTHTGGGGSGGGGSGGGGSQHAPPWTEDCRKSTYPPSGPTYRGAVPWYTINLDLPPYKRWHELMLDKAPVLKVIVNSLKNMINTFVPSGKIMQVVDEKLPGLLGNFPGPFEEEMKGIAAVTDIPLGEIISFNIFYELFTICTSIVAEDKKGHLIHGRNMDFGVFLGWNINNDTWVITEQLKPLTVNLDFQRNNKTVFKASSFAGYVGMLTGFKPGLFSLTLNERFSINGGYLGILEWILGKKDVMWIGFLTRTVLENSTSYEEAKNLLTKTKILAPAYFILGGNQSGEGCVITRDRKESLDVYELDAKQGRWYVVQTNYDRWKHPFFLDDRRTPAKMCLNRTSQENISFETMYDVLSTKPVLNKLTVYTTLIDVTKGQFETYLRDCPDPCIGW
notes: also called Fab HC-GS3-AC

The binders below were run against T2, recombinant human TfR (r human TfR: Sino Biological Inc.), hTfR extracellular region with a histidine tag at … (human, UniProt P02786 89-760) (assay: BLI (Octet RED96), His-tagged TfR ECD on Ni-NTA sensor).
T2 construct: Bought from Sino Biological; also called r human TfR-ECD (Histag); recombinant hTfR; not shown: histidine tag at the N-terminus

Kd [nM]	koff [s⁻¹]	kon [M⁻¹ s⁻¹]	Binder
< 0.001	< 1e-07	291000	B1
< 0.001	< 1e-07	449000	B2
< 0.001	< 1e-07	224000	B3
< 0.001	< 1e-07	282000	B4
0.209	0.000105	501000	B5

Target: T1, recombinant monkey TfR (r monkey TfR: …)
Experiment: as above

Kd [nM]	koff [s⁻¹]	kon [M⁻¹ s⁻¹]	Binder
2.62	0.000402	154000	B1
< 0.001	< 1e-07	250000	B2
1.4	0.000154	111000	B3
0.323	4.88e-05	151000	B4
~11.8	~0.00327	277000	B5
